Laboratory results as given in paper PMC3901934, “CAS directly interacts with vinculin to control mechanosensing and focal adhesion dynamics” (Cellular and Molecular Life Sciences: CMLS, 2013).

Target: T1, Vin WT GFP (GFP-fused vinculin WT) (UniProt Q64727 1-1066)
T1 sequence (looked up): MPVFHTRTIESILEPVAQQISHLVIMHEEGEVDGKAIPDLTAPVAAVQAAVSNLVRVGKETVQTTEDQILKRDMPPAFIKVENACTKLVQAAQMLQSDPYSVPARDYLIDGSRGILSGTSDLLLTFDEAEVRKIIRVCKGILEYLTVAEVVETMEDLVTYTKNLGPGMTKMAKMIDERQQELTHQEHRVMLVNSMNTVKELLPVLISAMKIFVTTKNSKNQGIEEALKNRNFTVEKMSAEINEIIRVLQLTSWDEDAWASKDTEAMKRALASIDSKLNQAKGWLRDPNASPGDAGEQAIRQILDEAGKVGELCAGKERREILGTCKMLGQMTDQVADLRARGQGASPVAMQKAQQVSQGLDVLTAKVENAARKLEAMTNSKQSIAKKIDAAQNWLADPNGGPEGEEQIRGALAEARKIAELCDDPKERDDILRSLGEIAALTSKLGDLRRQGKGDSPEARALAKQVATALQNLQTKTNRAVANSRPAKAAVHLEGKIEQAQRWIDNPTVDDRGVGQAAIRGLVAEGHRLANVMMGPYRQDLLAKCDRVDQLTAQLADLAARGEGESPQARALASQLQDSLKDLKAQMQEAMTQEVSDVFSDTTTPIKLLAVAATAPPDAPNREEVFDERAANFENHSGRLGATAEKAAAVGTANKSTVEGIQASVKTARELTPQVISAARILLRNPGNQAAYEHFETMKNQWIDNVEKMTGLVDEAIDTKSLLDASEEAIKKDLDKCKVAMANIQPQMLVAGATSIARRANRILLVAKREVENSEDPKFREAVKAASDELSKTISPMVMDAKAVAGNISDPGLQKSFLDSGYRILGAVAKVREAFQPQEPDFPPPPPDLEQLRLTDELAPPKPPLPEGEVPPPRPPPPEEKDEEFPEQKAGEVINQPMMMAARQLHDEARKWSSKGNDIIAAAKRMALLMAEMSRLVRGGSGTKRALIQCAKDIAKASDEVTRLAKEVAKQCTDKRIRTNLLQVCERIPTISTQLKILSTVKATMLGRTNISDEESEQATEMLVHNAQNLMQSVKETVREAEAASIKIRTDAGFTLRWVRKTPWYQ
Assay: cell-based or functional assay

fold change of CAS Y410 phosphorylation after 20 % static stretch for 10 min, Vin-/- MEFs re-expressing WT vinculin: 2.4 fold
B1: full-length CAS (in Vin-/- MEFs) (natural protein, mouse (endogenous in MEFs), UniProt Q61140 1-874, looked up)
chain: MTVPNVLAKALYDNVAESPDELSFRKGDIMTVLERDTQGLDGWWLCSLHGRQGIVPGNRLKILVGMYDKKPVGPGPGPPATPPQPQPSLPQGVHAPVPPASQYSPMLPTAYQPQSDNVYLVPTPSKTQQGLYQAPGPNPQFQSPPAKQTSTFSKQTPHHSFPSPATDLYQVPPGPGSPAQDIYQVPPSAGIGHDIYQVPPSLDTRGWEGTKPPAKVVVPTRVGQGYVYEAAQTEQDEYDTPRHLLAPGPQDIYDVPPVRGLLPNQYGQEVYDTPPMAVKGPNGRDPLLDVYDVPPSVEKGLLSSSHHSVYDVPPSVSKDVPDGPLLREETYDVPPAFAKPKPFDPTRHPLILAAPPPDSPAAEDVYDVPPPAPDLYDVPPGLRRPGPGTLYDVPRERVLPPEVADGSVVDDGVYAVPPPAEREAPTDGKRLSASSTGSTRSSQSASSLEVVVPGREPLELEVAVESLARLQQGVSTTVAHLLDLVGSASGPGGWRGTSEPQEPPAQDLKAAVAAVHGAVHELLEFARGAVSNATHTSDRTLHAKLSRQLQKMEDVYQTLVVHGQVLDSGRGSPGFTPEDLDRLVACSRAVPEDAKQLASFLHGNASLLFRRTKAPGPGPEGSSSLHPNPTDKASSIQSRPLPSPPKFTSQDSPDGQYENSEGGWMEDYDYVHLQGKEEFEKTQKELLERGNIMRQGKGQLELQQLKQFERLEQEVSRPIDHDLANWTPAQPLVPGRTGGLGPSDRQLLLFYLEQCEANLTTLTDAVDAFFTAVATNQPPKIFVAHSKFVILSAHKLVFIGDTLSRQAKAADVRSQVTHYSNLLCDLLRGIVATTKAAALQYPSPSAAQDMVDRVKELGHSTQQFRRVLGQLAAA
